Measurements reported in US20190314526A1.

Columns and labels:
[1] = target: AAV-2 capsid mutant D357N (rAAV-2 virion) (AAV-2) (UniProt P03135); assay: cell-based or functional assay
[2] = target: AAV-2 capsid mutant E411A/T413A/G449A/N450A (rAAV-2 virion) (AAV-2) (UniProt P03135); assay: cell-based or functional assay
[3] = target: AAV-2 capsid mutant G449A (rAAV-2 virion) (AAV-2) (UniProt P03135); assay: cell-based or functional assay
[4] = target: AAV-2 capsid mutant H134Q (rAAV-2 virion) (AAV-2) (UniProt P03135); assay: cell-based or functional assay
[5] = target: AAV-2 capsid mutant K569A (rAAV-2 virion) (AAV-2) (UniProt P03135); assay: cell-based or functional assay
[6] = target: AAV-2 capsid mutant N450A (rAAV-2 virion) (AAV-2) (UniProt P03135); assay: cell-based or functional assay
[7] = target: AAV-2 capsid mutant N568A (rAAV-2 virion) (AAV-2) (UniProt P03135); assay: cell-based or functional assay
[8] = target: AAV-2 capsid mutant S127A (rAAV-2 virion) (AAV-2) (UniProt P03135); assay: cell-based or functional assay
[9] = target: AAV-2 capsid mutant T354A (rAAV-2 virion) (AAV-2) (UniProt P03135); assay: cell-based or functional assay
[10] = target: AAV-2 capsid mutant V571A (rAAV-2 virion) (AAV-2) (UniProt P03135); assay: cell-based or functional assay
[11] = target: AAV-2 capsid mutant V571K (rAAV-2 virion) (AAV-2) (UniProt P03135); assay: cell-based or functional assay
[12] = target: AAV-2 capsid mutant D132N (rAAV-2 virion) (AAV-2) (UniProt P03135); assay: all-human IgG ELISA, against wild type
[13] = target: AAV-2 capsid mutant D357E (rAAV-2 virion) (AAV-2) (UniProt P03135); assay: all-human IgG ELISA, against wild type
[14] = target: AAV-2 capsid mutant E393D (rAAV-2 virion) (AAV-2) (UniProt P03135); assay: all-human IgG ELISA, against wild type
[15] = target: AAV-2 capsid mutant E411A/T413A (rAAV-2 virion) (AAV-2) (UniProt P03135); assay: all-human IgG ELISA, against wild type
[16] = target: AAV-2 capsid mutant E411A/T413A/G449A/N450A (rAAV-2 virion) (AAV-2) (UniProt P03135); assay: all-human IgG ELISA, against wild type
[17] = target: AAV-2 capsid mutant G246A (rAAV-2 virion) (AAV-2) (UniProt P03135); assay: all-human IgG ELISA, against wild type
[18] = target: AAV-2 capsid mutant G449A (rAAV-2 virion) (AAV-2) (UniProt P03135); assay: all-human IgG ELISA, against wild type
[19] = target: AAV-2 capsid mutant G449A/N568A (rAAV-2 virion) (AAV-2) (UniProt P03135); assay: all-human IgG ELISA, against wild type
[20] = target: AAV-2 capsid mutant H134Q (rAAV-2 virion) (AAV-2) (UniProt P03135); assay: all-human IgG ELISA, against wild type
[21] = target: AAV-2 capsid mutant H372K (rAAV-2 virion) (AAV-2) (UniProt P03135); assay: all-human IgG ELISA, against wild type
[22] = target: AAV-2 capsid mutant H372Q (rAAV-2 virion) (AAV-2) (UniProt P03135); assay: all-human IgG ELISA, against wild type
[23] = target: AAV-2 capsid mutant N360H (rAAV-2 virion) (AAV-2) (UniProt P03135); assay: all-human IgG ELISA, against wild type
[24] = target: AAV-2 capsid mutant N568A (rAAV-2 virion) (AAV-2) (UniProt P03135); assay: all-human IgG ELISA, against wild type
[25] = target: AAV-2 capsid mutant N568A/V571A (rAAV-2 virion) (AAV-2) (UniProt P03135); assay: all-human IgG ELISA, against wild type
[26] = target: AAV-2 capsid mutant N568K (rAAV-2 virion) (AAV-2) (UniProt P03135); assay: all-human IgG ELISA, against wild type
[27] = target: AAV-2 capsid mutant R334A (rAAV-2 virion) (AAV-2) (UniProt P03135); assay: all-human IgG ELISA, against wild type
[28] = target: AAV-2 capsid mutant R334A/G449A (rAAV-2 virion) (AAV-2) (UniProt P03135); assay: all-human IgG ELISA, against wild type
[29] = target: AAV-2 capsid mutant R334A/G449A/N568A (rAAV-2 virion) (AAV-2) (UniProt P03135); assay: all-human IgG ELISA, against wild type
[30] = target: AAV-2 capsid mutant R334A/N568A (rAAV-2 virion) (AAV-2) (UniProt P03135); assay: all-human IgG ELISA, against wild type
[31] = target: AAV-2 capsid mutant S130A (rAAV-2 virion) (AAV-2) (UniProt P03135); assay: all-human IgG ELISA, against wild type
[32] = target: AAV-2 capsid mutant S130T (rAAV-2 virion) (AAV-2) (UniProt P03135); assay: all-human IgG ELISA, against wild type
[33] = target: AAV-2 capsid mutant T413K (rAAV-2 virion) (AAV-2) (UniProt P03135); assay: all-human IgG ELISA, against wild type
[34] = target: AAV-2 capsid mutant V571K (rAAV-2 virion) (AAV-2) (UniProt P03135); assay: all-human IgG ELISA, against wild type
[35] = target: AAV-2 with a wild-type capsid (rAAV-2 virion) (AAV-2) (UniProt P03135); assay: all-human IgG ELISA, virus needed for half maximal OD, against wild type
[36] = target: AAV-2 capsid mutant V571K (rAAV-2 virion) (AAV-2) (UniProt P03135); assay: A20/IgG sandwich ELISA: capture on coated Panglobulin, detection with A20-biotin; against wild type

purified human IgG from >10,000 donors (Panglobulin, ZLB Bioplasma AG)
Fold decrease in neutralizing titer [1]: 1.8 fold
Fold decrease in neutralizing titer [2]: 1 fold
Fold decrease in neutralizing titer [3]: 2.5 fold
Fold decrease in neutralizing titer [4]: 1.5 fold
Fold decrease in neutralizing titer [5]: 4 fold
Fold decrease in neutralizing titer [6]: 1.6 fold
Fold decrease in neutralizing titer [7]: 2 fold
Fold decrease in neutralizing titer [8]: 2.2 fold
Fold decrease in neutralizing titer [9]: 2.9 fold
Fold decrease in neutralizing titer [10]: 3.9 fold
Fold decrease in neutralizing titer [11]: 1 fold
Fold decrease in binding of human IgG [12]: 1 fold
Fold decrease in binding of human IgG [13]: 1 fold
Fold decrease in binding of human IgG [14]: 1 fold
Fold decrease in binding of human IgG [15]: 1 fold
Fold decrease in binding of human IgG [16]: 1 fold
Fold decrease in binding of human IgG [17]: 1 fold
Fold decrease in binding of human IgG [18]: 1 fold
Fold decrease in binding of human IgG [19]: 1 fold
Fold decrease in binding of human IgG [20]: 1 fold
Fold decrease in binding of human IgG [21]: 1 fold
Fold decrease in binding of human IgG [22]: 1 fold
Fold decrease in binding of human IgG [23]: 1 fold
Fold decrease in binding of human IgG [24]: 1 fold
Fold decrease in binding of human IgG [25]: 1 fold
Fold decrease in binding of human IgG [26]: 1 fold
Fold decrease in binding of human IgG [27]: 1 fold
Fold decrease in binding of human IgG [28]: 1 fold
Fold decrease in binding of human IgG [29]: 1 fold
Fold decrease in binding of human IgG [30]: 1 fold
Fold decrease in binding of human IgG [31]: 1 fold
Fold decrease in binding of human IgG [32]: 1 fold
Fold decrease in binding of human IgG [33]: 1 fold
Fold decrease in binding of human IgG [34]: 10 fold
Fold decrease in binding of human IgG [35]: 1 fold
fold reduction of binding [36]: 100 fold
